Target: T1, Bcl-TEV IRES iADAR (tandem-dimer MCP, BAD peptide fused to the N-terminus of ADAR2-DD(E488Q & F697Y), TEV cut site, Bcl-xL, TagBFP)
T1 chain: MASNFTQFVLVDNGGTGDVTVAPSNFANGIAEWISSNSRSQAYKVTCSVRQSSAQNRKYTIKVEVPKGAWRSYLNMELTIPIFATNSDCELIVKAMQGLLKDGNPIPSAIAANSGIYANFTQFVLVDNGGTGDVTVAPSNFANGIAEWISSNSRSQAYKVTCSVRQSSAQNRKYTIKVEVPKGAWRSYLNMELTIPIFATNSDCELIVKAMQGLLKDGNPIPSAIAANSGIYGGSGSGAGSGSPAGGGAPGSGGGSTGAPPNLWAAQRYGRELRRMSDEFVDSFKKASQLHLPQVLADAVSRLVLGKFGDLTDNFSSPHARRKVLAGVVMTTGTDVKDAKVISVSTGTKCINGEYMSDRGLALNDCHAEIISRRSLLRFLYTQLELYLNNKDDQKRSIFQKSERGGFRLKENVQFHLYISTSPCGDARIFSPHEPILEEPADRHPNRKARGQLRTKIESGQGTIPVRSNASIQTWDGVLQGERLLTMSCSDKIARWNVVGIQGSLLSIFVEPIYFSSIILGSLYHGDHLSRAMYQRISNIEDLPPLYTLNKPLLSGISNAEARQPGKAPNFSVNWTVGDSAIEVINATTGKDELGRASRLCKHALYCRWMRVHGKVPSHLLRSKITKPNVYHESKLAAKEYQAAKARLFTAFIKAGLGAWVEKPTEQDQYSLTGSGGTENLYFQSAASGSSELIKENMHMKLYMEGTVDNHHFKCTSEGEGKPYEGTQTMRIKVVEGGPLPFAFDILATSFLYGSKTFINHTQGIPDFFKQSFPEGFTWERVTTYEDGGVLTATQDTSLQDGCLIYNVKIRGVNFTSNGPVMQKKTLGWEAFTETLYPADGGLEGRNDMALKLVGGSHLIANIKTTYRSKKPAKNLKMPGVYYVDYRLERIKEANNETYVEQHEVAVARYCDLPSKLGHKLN

B1: TEV Protease (protein)
chain: MGESLFKGPRDYNPISSTICHLTNESDGHTTSLYGIGFGPFIITNKHLFRRNNGTLLVQSLHGVFKVKNTTTLQQHLIDGRDMIIIRMPKDFPPFPQKLKFREPQREERICLVTTNFQTKSMSSMVSDTSCTFPSSDGIFWKHWIQTKDGQCGSPLVSTRDGFIVGIHSASNFTNTNNYFTSVPKNFMELLTNQEAQQWVSGWRLNADSVLWGGHKVFMVKPEEPFQPVKEATQL
  fold change of the mean RFU (mNeonGreen-to-mCherry), Bcl-TEV IRES iADAR co-transfected with TEV protease: 17× for TEV protease

Source: patent publication US20260176653
